Measurements reported in the nanobody polyreactivity screen of Harvey et al. (2022).

Test: yeast display, Sf9 membrane polyspecificity reagent, FACS + sequencing; frameworks hold sequencing errors
How it was run: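 Using colony PCR, genes from sorted yeast display clones were amplified, then sequenced on MiSeq at 2 × 250 and filtered by CDR length. The clones had been stained with 10% biotinylated, detergent-solubilized Sf9 membrane reagent for 1 hour at 4 °C and sorted by FACS into low and high (top ~1%) gates on anti-HA and streptavidin fluorescence. Polyreactivity labels come from the gate of origin.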

QVQLVESGGGLVHAGGSLRLSCAASGSTLGYNVMGWYRQAPGKERELVAAISGDGSTNYADSVKGRFTISRDNAKNTVYLQMNSLKREDTEVYYCNAPFWGYRTSFSYPVVQRFDYWGQGTHVTVSS
polyreactivity (PSR sort gate): low polyreactivity

QVQLVESGGGLVQAGGSLRLSCAASGIISAGYAMGWYRQAPGKERELVAAISTSGTSTYYADSVKGRFTISRDNAKNTVYLQMNSLKPEDTAVYYCAYTYYYGVGYYYWGQGTQVTVSS
polyreactivity (PSR sort gate): low polyreactivity

QVQLVESGGGLVQAGGSLRLTCAASGRIFGRNTMGWYRQAPGKEMELVAAISSSGGSTRYADSVKGRFTISRDNAKNTVYIQMNSLKPEDTALYYCAAVRNRHGYDYWGKGTQVTVSS
polyreactivity (PSR sort gate): high polyreactivity

QVQLVESGGGLVQAGGSLRVSCAASGSIFLIYGMGWYRQAPGKERELVAAITARGGSTYYADSVKGRFTISRDNAKNTVYLQMNSLKPEDTAVYYCNADGYPDVGAGTYGYWGLGTQVTVSS
polyreactivity (PSR sort gate): low polyreactivity

QVQIVESGGGLVQAGGSLRLSCAASGSIFSRNVMGWYRQAPGKERELVAAISRSGGRTYYADSVKGRFTISRDYAKNTVYLQMNSLKPEDTAVYYCNRDIGGTSVLDDYWGQGTQVTVSS
polyreactivity (PSR sort gate): low polyreactivity

QVQIVESGGGLVQAGGSLRLSCAASGSTFSVYAMGWYRQAPGKDRELVVAIRSSGGSTYYAHSVKGRFTISRDNAKNTVYLQMNSLKPEDTAVYYCATRIIVGSYRYDYWGQATQVTVSS
polyreactivity (PSR sort gate): low polyreactivity

QVQLVESGVGLVQAGGSLRLSCAASGRTFSRNAMGWYRQAPGKERELVAAISRSGGSTYYADSVKGRFTISRDNAKNTVYLQMNSLKPEDTAVYYCNADVYSTYYNYNYWGQGTQVTVSS
polyreactivity (PSR sort gate): high polyreactivity

QVQLVESGGGLVQAGGSLRLTCAASGSIFVGYAMGWYREAPGKEMELVAAITTRGDTTYYADSVKGRFTISRDNAKNTVYLQMNSLKPEHTAVYYCNTTSFFQAWPSDVQYDYWGQGTQVTVSS
polyreactivity (PSR sort gate): low polyreactivity

QVQLVESGGGLVQAGGSLRLSCAASGRTIDHYAMGWYRQAPGKERELVAAISTTGGSTYYADSVKGRFTISRDNAKNTVYLQMNSLKPEDTAVYYCAARGLRTGGYWGQGTQVTVSS
polyreactivity (PSR sort gate): high polyreactivity

QVHLVESGGGLVQAGGSLRISCAASGSIFKGYAMGWYRQAPGKERELVAAITIDGSTYYADSVKGRFTISRDNAKNTVYLQMNSLKPEDTAVYYCDAVYLWYGSWPLHFAAYDYWGQGTQVTVSS
polyreactivity (PSR sort gate): low polyreactivity

QVQLVESGGGLVQAGGSLRLSCAASGSIFKYNTMGWYIQAPGKERELVATISGGGRTYYADSVKGRFTISRDNAKNTVYLQMNSLKPEDTAVYYCAARKRGTFTYDYWGQGTQVTVSS
polyreactivity (PSR sort gate): high polyreactivity

QVQLVESAGGLVQAGGSLRLSCAASGSIFSTYVMGWYRQAPGKERELVAAISRRGGSTYYADSVKGRFTISRDNAKNTVYLQMNSLKPEDTAVSYCAADGTVGRRDYWGQGTQVTVSS
polyreactivity (PSR sort gate): high polyreactivity

QVQLLESGGGLVQAGGSLRLSCAASGSILIKYAMGWYRQAPGKERELVATITSGGSTYYADSVKGRFTISRDNAKNTVYLQMNSLKPEDTAVYYCATGQYYYYGIVAFFELDYWGQGTQVTVSS
polyreactivity (PSR sort gate): low polyreactivity

QVQLVESGGGLVQAGGSLRLSCAASGSIFGYNAMGWYRQAPGKERELVAAISLSGSSTYYADSVKGRFTISRDNAKNTVYLQMNSLKPEDTAVYYCAALYQWRRVFYTSYGYWGQGTQVTGSS
polyreactivity (PSR sort gate): high polyreactivity

QVQLVESGGGLVQAGGSLRLSCAASGIIFAVYAMGWYRQAPGKERELVAAISTSGGRTYYADSVKGRFTISRDNAKNTVYLQMNSLKPEDTAVYYCAAEYVGKGTPDDYDYWGQGTQVTVSS
polyreactivity (PSR sort gate): high polyreactivity

QVQLVESGGGLVQAGGSLRLSCAASGRIFHYNAMGWYRQARGKERQLVAAITGGGGSTYYADSVKGRFTISRDNAKNTVYLEKNSLKPEDTAVYYCAKRYRSSSIRVYYWGLGTQVTVSS
polyreactivity (PSR sort gate): high polyreactivity

QVKLVESGGRLVQAGGSLRLSCAASGRNFYNYAMGWYRQAPGKERELVAAISKSGGRTYYADSVKGRFTISRDNAKNTVYLQMNSLKPEDTAVYYCAAEPFIPDQSRYYYWGQGSQVTVSS
polyreactivity (PSR sort gate): high polyreactivity

QVQLVESGGGLVQAGGSLRLSCAASGGTFGTNTMGWYRQAPGKERELVAAISRSGGSTYYADSVKGRFTISRDNAKNTVYLQMNCLKPEDTAVYYCNAVPRKYTDEFDYWGQGTQVTVSS
polyreactivity (PSR sort gate): high polyreactivity

QDQLVESGGGLVQAGGSLRLSCAASGIIVTYYAMGWYRQAPGKERELVAAISESGGITYYADSVKGRFTISRDNAKNTVYLQMISLKPEVTGVYYCNAEYWGYAWPYDYWGQGTQVTVSS
polyreactivity (PSR sort gate): high polyreactivity

QVQLVESVGGLVQAGGSLRLSSAASGYIFFGNAMGWYRQAPGKERELVAAIRWRGTSTYYADSVKGRFTISRDNAKNTVYLQMNSLKPEDTAVYYCAKDGRVHSPYDYWGQGTQVTVSS
polyreactivity (PSR sort gate): low polyreactivity

QVQLVESGGGLDQAGGSLRLSCAASGTFSRNAMGWYRQAPGKERELLADISGGRSTDYADSVKGRFTISRDNAKNTVYLQMNSLKPEDTAVYYCAAYGYLWWEMDYWGQGTQVTVSS
polyreactivity (PSR sort gate): high polyreactivity

QVQLVESGGGLVQAGGSLRLSCAASGSTFYTNAMGWYRQAPGKEREFVAAISWSGSSTYADSVKGRFTISRDNAKNTVYLQMNSLKPEDTAVYYCSADWFKLRTDYYWGQGTQVTVSS
polyreactivity (PSR sort gate): low polyreactivity

QVHLLESGGALVQAGGRLRLSCAASGRIFKTYAMGWYRQAPGKELEFVAAITASGGRTYYADSVKGRFTISRDNAKNTVYLQMNSLIPEDTAGYYCNARLVYYSYEEMDYWGQGTQVTVSS
polyreactivity (PSR sort gate): low polyreactivity

QVQLVESGGGLVQAGGSLRLSCAASGSTFRYYAMGWYRQAPGKERELVAAISGSGGRTYYADSVKGRFTISRDNAKNTVYLQMNSLKPEDTAVYYCAAQCGYYDSAYGSWGQGTQVTVSS
polyreactivity (PSR sort gate): high polyreactivity

QVQLVESGGGLVQAGGSLRLSCAASGITFDVNAMGWYRQAPGKERELVAAITAGGNTYYADSVKGRFTISRDNAKNTVYLQLNSLKPEVTAVYYCATQSYYGFYDYDYWGQGTQVTVSS
polyreactivity (PSR sort gate): low polyreactivity

QVQIVESGGGLVQAGGSLSLSCASSGSTIGDYAMGWYRQAPGKERELVAAINSGDSKNYADSVKGRFTISRDNAKNTVYLQMNSLKPEDTAVYYCAAEPLSISYVYYKYKYEYWGQGTQVTVSS
polyreactivity (PSR sort gate): low polyreactivity

QVQLVESGGGLVQAGGSLRLSCAASGFTFDYYALGWYRQAPGKERELVAAISRGGSTYYADSVKGRFTISRDNGKNTFYLQMNSLKPEDTAVYYCAVSAGKRRLDYWGQGTQVTVSS
polyreactivity (PSR sort gate): high polyreactivity

QVQRVESGGGLVQAGGSLRLSCAASGIIFQSYAMGWYRHAPGKERELVAAISRRGGRTYYADSVKGRFTISRDNAKNTVYLQMNSLKPEDTAVYYCADRYRYAPYDYWGQGTQVTVSS
polyreactivity (PSR sort gate): high polyreactivity

QVQLVESGGGLVHAGGSLRLSCAASGSILKYYAMGWYRQAPGKERELVAAITSRGGSTYYADSVKGRFTISRDNAKNTVYLQMNSLKPEDTAVYYCNRVYLGYFRYDYWGQGTQVTVSS
polyreactivity (PSR sort gate): high polyreactivity

QVQLVESGGGLVQAGGSLRLSCAASGSIFDWYAMGWYRQAPGKERELVAAIDSSGSSTYYADSVKGRFTISRDNAKNTVYLQMNSLKPEDNAVYYCAADSDWIRDWFGSLYGSDYWGQGSQVTVSS
polyreactivity (PSR sort gate): low polyreactivity

QVQLVESGGGLVQAGGSLRLSCASSGFTFARYAMGWYRPAPGKEREFVAAIDKSGGSTYYADSVTGRFTISRDNAKNTVYLQMNSLKPEDTAVYYCAAGFGRVFSSIYGYWGQGTQVTVSS
polyreactivity (PSR sort gate): high polyreactivity

HVQLVESGGGLVQAGGSLRLSCAASGSIFSGNAMGWSRQAPGKERELVAAIDWSGDSTYYADSVKGRFTLSRDNAKNTVYLQMNSLKPEDTAVYYCNTVSFSWGYSAYDYWGQGTQVTVSS
polyreactivity (PSR sort gate): low polyreactivity
